Patent US20200276326A1

How the values were obtained:
[1] = molecular target: human CD5 on cells (MOLT-4 human T lymphoblast cells; primary human T-cells) (human) (UniProt P06127); experiment: flow cytometry on MOLT-4 cells, anti-mouse AF488 secondary, 4 C
[2] = molecular target: human CD5 on cells (MOLT-4 human T lymphoblast cells; primary human T-cells) (human) (UniProt P06127); experiment: flow cytometry on primary human T-cells, AF488 secondary, antibody titration at 37 C
[3] = molecular target: purified human CD5 ectodomain (human) (UniProt P06127); experiment: BLI (Octet Red96), antibody on anti-human Fc biosensors, 50 nM CD5 ectodomain, 25 C

| Molecule | EC50 [1] [nM] | EC50 [2] [nM] | Kd [3] [nM] | Response [3] [nm] | koff [3] [s⁻¹] | kon [3] [M⁻¹ s⁻¹] |
| --- | --- | --- | --- | --- | --- | --- |
| murine anti-CD5 antibody CRIS-1 (Novus Biologicals) | 0.043 | – | – | – | – | – |
| murine anti-CD5 antibody UCHT2 (BioLegend) | 0.354 | – | – | – | – | – |
| anti-CD5 antibody 5D7 hIgG1 (humanized version of murine antibody 5D7) (antibody, V domains shown) VH: QVTLKESGPVLVKPTETLTLTCTFSGFSLSTSGMGVGWIRQAPGKGLEWVAHIWWDDDVYYNPSLKSRLTITKDASKDQVSLKLSSVTAADTAVYYCVRRRATGTGFDYWGQGTLVTVSS VL: NIVMTQSPSSLSASVGDRVTITCQASQDVGTAVAWYQQKPDQSPKLLIYWTSTRHTGVPDRFTGSGSGTDFTLTISSLQPEDIATYFCHQYNSYNTFGSGTKLEIK | – | 0.003 | 0.141 | 0.67 | 3.36e-05 | 239000 |
